One test concerns the target T1, ERβ (Mus musculus, UniProt O08537).
T1 construct: expressed in transfected cells; host or cells: HEK293 (TR2 experiment), H1299 (TR4 experiment)
The test can be described thus: ERβ-mediated transactivation (ERE reporter). The test is classed as cell-based. As to the method:
(A) TR2 repression of ER-mediated ERE-tk-CAT reporter genes in PC-3, H1299, MCF7, and T47D cells. Cells in 60-mm dishes were co-transfected with […] of ERE-CAT, pSG5-ER, and/or pCMV-TR2 by calcium phosphate precipitation methods. 1 mg of b-galactosidase expression plasmid, pCMV-b-gal, was used as an internal control for transfection efficiency. CAT activity is presented relative to the response to ethanol, which is set as one. (B) MCF7-pBIG and MCF7-TR2 cells were stably transfected with doxycycline-inducible pBIG2i and pBIG2I-FLAG-TR2 plasmids, respectively. Cells were transfected with […] of pCMV-b-gal and, after 16 hr, were treated with or without […] doxycycline. […] FLAG-TR2 induction was monitored by Western blotting using anti-FLAG antibody (M2), shown in the upper panel. […] Relative mRNA expression amounts were normalized by 28S expression and quantitated by ImageQuant V.1.2 (Molecular Dynamics). […] Luciferase activity was analyzed following manufacturer's instructions (Promega). […]
H1299 and MCF-7 cells were maintained in Dulbecco's modified eagle medium (DMEM) containing penicillin (25 units/ml), streptomycin (25 μg/ml), and 10% fetal calf serum (FBS). […] The CAT activity was visualized by Phosphorlmager (Molecular Dynamics) and quantitated by IMAGEQUANT software (Molecular Dynamics). The luciferase activity was determined by the Luminometer (Turner Designs).

For the next test, the system named is PSA. The test can be described thus: Northern blot of endogenous PSA in LNCaP cells. The test is classed as cell-based, human. The method, then: Total RNA from the DHT-treated transfected LNCaP cells was prepared by the ultracentrifugation method as described. Lee, et al., J: Biol. Chem. 273, 13437-13443 (1998). The probe was obtained from exon 3 of PSA gene and labeled with a-32p dCTP.
To rule out the potential artificial effects linked to transfected reporter assays, the expression of endogenous prostate specific antigen (PSA, an androgen target that is widely used as a marker for prostate cancer progression) in LNCaP cells was measured by Northern blot analysis. Total RNA (25 μg) from LNCaP cells, which were transfected with either pCMX-TR4 or pCMX vector using SuperFect (Qiagen), was applied into a formamide RNA gel, then transferred onto a Nylon membrane, and then hybridized with a 32P-PSA gene fragment from the exon 3. P-actin was used as an internal control. […] The level of secreted PSA protein in the medium measured by ELISA, also confirmed this conclusion. This in vivo TR4-mediated suppressive effect strongly supports the above reporter assays.
Total RNA from transfected LNCaP cells was prepared using TRIZOL reagents (Life Technology) as instructed by manufacturer. The probe was obtained from the PSA gene by PCR and labeled with 32P dCTP. Northern hybridization was performed as described previously [Mu X. M. et al. (2002) J Biol Chem 275:23877-23883].

T1 sequence (O08537 whole entry): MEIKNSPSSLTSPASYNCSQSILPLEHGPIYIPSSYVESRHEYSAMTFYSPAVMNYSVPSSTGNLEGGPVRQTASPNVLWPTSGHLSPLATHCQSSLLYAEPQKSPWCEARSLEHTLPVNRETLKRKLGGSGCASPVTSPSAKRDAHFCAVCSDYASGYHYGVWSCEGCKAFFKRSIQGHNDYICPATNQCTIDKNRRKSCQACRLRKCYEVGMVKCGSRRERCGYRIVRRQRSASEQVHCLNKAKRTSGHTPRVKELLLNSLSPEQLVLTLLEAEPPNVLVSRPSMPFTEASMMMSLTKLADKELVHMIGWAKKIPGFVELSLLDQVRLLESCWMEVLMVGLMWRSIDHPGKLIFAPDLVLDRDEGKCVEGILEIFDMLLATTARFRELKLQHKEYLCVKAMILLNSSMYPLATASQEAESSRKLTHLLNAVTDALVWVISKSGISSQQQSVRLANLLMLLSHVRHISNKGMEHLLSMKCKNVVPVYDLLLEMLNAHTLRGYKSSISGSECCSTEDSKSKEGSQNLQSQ

B1: TR2: human testicular orphan nuclear receptor 2, 603 amino acids (protein, UniProt P13056 1-603, looked up)
chain: MATIEEIAHQIIEQQMGEIVTEQQTGQKIQIVTALDHNTQGKQFILTNHDGSTPSKVILARQDSTPGKVFLTTPDAAGVNQLFFTTPDLSAQHLQLLTDNSPDQGPNKVFDLCVVCGDKASGRHYGAVTCEGCKGFFKRSIRKNLVYSCRGSKDCIINKHHRNRCQYCRLQRCIAFGMKQDSVQCERKPIEVSREKSSNCAASTEKIYIRKDLRSPLTATPTFVTDSESTRSTGLLDSGMFMNIHPSGVKTESAVLMTSDKAESCQGDLSTLANVVTSLANLGKTKDLSQNSNEMSMIESLSNDDTSLCEFQEMQTNGDVSRAFDTLAKALNPGESTACQSSVAGMEGSVHLITGDSSINYTEKEGPLLSDSHVAFRLTMPSPMPEYLNVHYIGESASRLLFLSMHWALSIPSFQALGQENSISLVKAYWNELFTLGLAQCWQVMNVATILATFVNCLHNSLQQDKMSTERRKLLMEHIFKLQEFCNSMVKLCIDGYEYAYLKAIVLFSPDHPSLENMEQIEKFQEKAYVEFQDYITKTYPDDTYRLSRLLLRLPALRLMNATITEELFFKGLIGNIRIDSVIPHILKMEPADYNSQIIGHSI
modifications: full-length
notes: human testicular orphan nuclear receptor 2, 603 amino acids
As to B1, the “ERβ-mediated transcription (ERE-Luc)” value in the test with ERβ (HEK293 cells, TR2) was “suppress”. Further, the “PSA mRNA expression” value in the test on PSA (LNCaP cells, 10 nM DHT, pCMV-TR2, Example 4) is listed as “suppresses”.

B2: TR4: human testicular orphan nuclear receptor 4, SEQ ID NO:16; expressed from plasmid or in vitro translated (protein)
chain: MTSPSPRIQIISTDSAVASPQRIQGSEPASGPLSVFTSLNKEKIVTDQQTGQKIQIVTAVDASGSPKQQFILTSPDGAGTGKVILASPETSSAKQLIFTTSDNLVPGRIQIVTDSASVERLLGKTDVQRPQVVEYCVVCGDKASGRHYGAVSCEGCKGFFKRSVRKNLTYSCRSSQDCIINKHHRNRCQFCRLKKCLEMGMKMESVQSERKPFDVQREKPSNCAASTEKIYIRKDLRSPLIATPTFVADKDGARQTGLLDPGMLVNIQQPLIREDGTVLLATDSKAETSQGALGTLANVVTSLANLSESLNNGDTSEIQPEDQSASEITRAFDTLAKALNTTDSSSSPSLADGIDTSGGGSIHVISRDQSTPIIEVEGPLLSDTHVTFKLTMPSPMPEYLNVHYICESASRLLFLSMHRARSIPAFQGLGQDCNTSLVRACWNELFTLGLAQCAQVMSLSTILAAIVNHLQNSIQEDKLSGDRIKQVMEHIWKLQEFCNSMANWDIDGYEYAYLKAIVLFSPDHPGLTSTSQIEKFQEKAQMELQDYVQKTYSEDTYRLARILVRLPALRLMSSNITEELFFTGLIGNVSIDSIIPYILKMETAEYNGQITGVSL
With B2, in the test with ERβ (H1299 cells, 10 nM E2, increasing TR4 expression plasmid), the “E2-induced ERE-CAT activity, ERβ” value is “suppression of the E2-induced CAT activity in a dose-dependent manner”. Besides, the “Expression of endogenous PSA transcript” value in the test with PSA (LNCaP cells transfected with pCMX-TR4, absence or presence of 10 nM DHT) is listed as “clearly repress”.

The values above are taken from patent US20030235860A1, “Interactions between AR, ER, TR2, and TR4” (priority 1999, published 2003).
